The text below walks through data of paper PMC9318220.

In this assay the target is conSOSL.UFO.664 trimer with a C-terminal 8x His-tag (SUFO.664-His) (HIV-1 (consensus S)). Description: SEC + native gel or EMSA; SEC on HiPrep 26/60 Sephacryl S-300 HR after lectin affinity; eluted fractions analysed by Native-PAGE with silver stain and Western blot. (Mobility shift assays separate free from complexed probe on a gel.)

By stoichiometry N is commonly meant a count of units in the complex or per binding partner. Consider “conSOSL.UFO.664 trimer with a C-terminal 8x His-tag (SUFO.664-His)”, for which the stoichiometry N is 3.
